From patent publication US20240115706A1 (LG CHEM, published 2024)

T1: monkey GUCY2C-rCD4 fusion protein (Macaca fascicularis (crab-eating …, limits assumed))
T1 construct: Prepared by the same method as the human antigen; also called Cy-GUCY2C-rCD4; monkey GUCY2C recombinant antigen
T1 chain: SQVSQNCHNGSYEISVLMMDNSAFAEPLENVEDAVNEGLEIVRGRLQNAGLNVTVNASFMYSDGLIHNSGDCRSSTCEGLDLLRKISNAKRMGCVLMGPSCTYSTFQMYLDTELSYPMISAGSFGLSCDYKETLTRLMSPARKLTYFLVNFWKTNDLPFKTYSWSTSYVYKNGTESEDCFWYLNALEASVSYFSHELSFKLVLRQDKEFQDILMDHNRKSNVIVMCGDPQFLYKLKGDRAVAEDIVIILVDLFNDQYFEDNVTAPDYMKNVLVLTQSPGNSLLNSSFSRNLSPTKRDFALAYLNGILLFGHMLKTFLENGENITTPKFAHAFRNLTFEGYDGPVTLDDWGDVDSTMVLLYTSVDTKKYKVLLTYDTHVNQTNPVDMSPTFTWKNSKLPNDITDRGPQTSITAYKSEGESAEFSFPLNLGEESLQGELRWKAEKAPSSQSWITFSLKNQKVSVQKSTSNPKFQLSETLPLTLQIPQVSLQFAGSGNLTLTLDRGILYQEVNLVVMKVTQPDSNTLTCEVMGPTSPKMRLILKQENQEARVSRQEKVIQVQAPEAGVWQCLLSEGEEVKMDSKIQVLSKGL


How the values were obtained:
[1] = target: T2, human GUCY2C-rCD4 fusion protein (Homo sapiens (human); Rattus norvegicus, biotinylated (site not given)); assay: ranking ELISA (DELFIA), 5 nM scFv on anti-FLAG, biotinylated antigen, streptavidin-Eu
T2 construct: GUCY2C conjugated/fused with CD4; also called Hu-GUCY2C-rCD4; human GUCY2C recombinant antigen
Experimental: (§1) More specifically, after coating an anti-FLAG antibody in a MaxiSorb plate and binding by adding scFvs obtained previously, the remaining scFvs were removed by a washing process. Here, a biotinylated human-GUCY2C-rCD4 protein was incubated and combined, and then the affinity to the antigen was measured by reading signals by DELFIA enhancement with color development through streptavidin-Europlum.

[2] = target: T1, monkey GUCY2C-rCD4 fusion protein; assay: ELISA (DELFIA), antigen on streptavidin plate, scFv culture solution, Eu-anti-tag Ab
Experimental: (§2) More specifically, GUCY2C-rCD4 fusion protein, in which the prepared human GUCY2C (SEQ ID NO: 112), monkey GUCY2C (SEQ ID NO: 114), and mouse GUCY2C (SEQ ID NO: 113) were fused, respectively, was bound to a place coated with streptavidin in a Nunc Maxisorp™96 well plate. After removing all the synthetic proteins not combined with washing buffer, the anti-GUCY2C scFV obtained in the culture solution was incubated in each well. After that, the affinity was measured by reading signals DELFIA enhanced using Eu-anti-tag Ab.

[3] = target: T2, human GUCY2C-rCD4 fusion protein; assay: as above
Experimental: as §2

[4] = target: T2, human GUCY2C-rCD4 fusion protein; assay: SPR (Sierra SPR-32), scFv on protein G, antigen 800-12.5 nM, 25 C
Experimental: Furthermore, the affinity to the GUCY2C antigen of the 18 kinds of scFvs produced in Example 1 was measured by SPR (Surface plasmon resonance) analysis.
SPR assay was performed with association time 2 min and dissociation time 10 min under the condition of 25 degrees of Celsius using MASS2 (Sierra SPR-32; Bruker). The data were analyzed with Software R3.

[5] = target: T2, human GUCY2C-rCD4 fusion protein; assay: ranking ELISA (DELFIA), 50 nM scFv on anti-FLAG, biotinylated antigen, streptavidin-Eu
Experimental: as §1

[6] = target: T3, GUCY2C on the cell surface (T84 colon carcinoma cells; HT29-GUCY2C cells) (human, UniProt P25092 24-1073); assay: flow cytometry, scFv(-Fc) at 10 ug/mL on GUCY2C-positive T84 cells, detected with IgG-Fc-PE Ab (FL2-H)
T3 construct: whole, on cells; also called GUCY2C expressing T84 cells; HT29 GCC cells
Experimental: Using cells naturally expressing GUCY2C, whether 18 kinds of scFvs produced in Example 1 could actually detect GUCY2C expression on the cell surface was confirmed. For this, a GUCY2C positive cancer cell, T84 colon carcinoma cell (ATCC® CCL248™) was used.
After separating the two cell lines using trypsin-EDTA, they were placed in FACS buffer (1×PBS+2% BSA). 10 ug/mL of each of the 18 kinds of scFvs and positive control group, 5F9 scFv was cultured with T84 and T-47D cells on ice for 1 hour. The scFv combined to cells was detected using 5 ug/mL IgG-Fc-PE Ab (BioLegend; 409304). The cells were cultured with ToPro®3 (live/dead stain) and then red with a flow cytometer.

Binder	Affinity Ranking ELISA (5 nM) signal [1]	Binding ELISA signal [2]	Binding ELISA signal [3]	Kd [4]	Affinity Ranking ELISA (50 nM) signal [5]	binding result [6]
scFv C01 (scFv, also called 2437_02_H05) scFv: QMQLVQSGAEVKKPGSSVKVSCKASGGTFSSYAISWVRQAPGQGLEWMGGIIPIFGTANYAQKFQGRVTITADESTSTAYMELSSLRSEDTAVYYCVRGYSSIYYYYGMDVWGQGTMVTVSSGGGGSGGGGSGGGASQSGLTQPRSVSGSPGQSVTISCTGTSSDVGGYNYVSWYQQHPGKAPKLMIYDVSKRPSGVSDRFSGSKSGNTASLTISGLQAEDEADYYCGSYTSDGTLVFGGGTKLTVL	3090	21600	37500	1150 nM	29500	
scFv B10 (scFv, also called 2436_02_G01) scFv: EVQLVQSGAEVKKPGSSVKVSCKASGGTFSSYAISWVRQAPGQGLEWMGGIIPIFGTANYAQKFQGRVTITADKSTSTAYMELSSLRSEDTAVYYCARGHYYYMDVWGQGTTVTVSSGGGGSGGGGSGGGASDIVMTQSPATLSVSPGEGATLSCRASQSVSSNLAWYQQKPGRAPRLLIYGASTRATGIPARFSGSGSGTEFTLTISSLQSEDFAVYYCQQYNNWPTFGGGTKLEIK	12500		34400	2860 nM	105000	
scFv C02 (scFv, also called 2437_02_H08) scFv: QVQLVQSGAEVKKPGSSVKVSCKASGGTFSSYTISWVRQAPGQGLEWMGRIIPILGIANYAQKFQGRVTITADKSTSTAYMELSSLRSEDTAVYYCARDRSYNWLDPWGRGTLVTVSSGGGGSGGGGSGGGASQSALTQPVSVSGSPGQSITISCTGTISDVGDYNYVSWYQQHPGKAPKLMIYDVNNRPSGVSNRFSGSKSGNTASLTISGLQAEDEADYYCSSYTSSSTLVFGGGTKLTVL	11000	32300	49500	1480 nM	86300	
scFv A12 (scFv, also called 2433_01_G08) scFv: EVQLVQPGAEVKKPGSSVKVSCKASGGTLSSYAISWVRQAPGQGLEWMGRIIPILGITNYAQKFQGRVTITADKSTSTAYMELSSLRSEDTAVYFCARDQRPASMDVWGQGTLVTVSSGGGGSGGGGSGGGASQSELTQPASVSGSPGQSITISCTGTSSDVGGYIYVSWYQQHPGKVPKLMIHDVSHRPSGVSNRFSGSRSGNTASLTISGLQAEDEADYFCSSYTSSNNYVFGTGTKVTVL	28100		38200	297 nM	151000	
scFv A02 (scFv, also called 2427_01_A08) scFv: EVQLVQPGAEVKKPGSSVKVSCKASGGTLSSYAISWVRQAPGQGLEWMGRIIPILGITNYAQKFQGRVTITADKSTSTAYMELSSLRSEDTAVYFCARDQRPASMDVWGQGTLVTVSSGGGGSGGGGSGGGASQSELTQPASVSGSPGQSITISCTGTSSDVGGYIYVSWYQQHPGKVPKLMIHDVSHRPSGVSNRFSGSRSGNTASLTISGLQAEDEADYFCSSYAGSNNYVFGTGTKVTVL	33400		48300	743 nM	168000	
scFv A05 (scFv, also called 2427_01_B07) scFv: QVQLVQSGAEVKKPGSSVKVSCKASGGTFSSYTITWVRQAPGQGLEWMGRIIPVLGIANYAQKFQGRVTITADKSTSTAYMELSSLRSEDTAVYYCARDYSSSWNSMDVWGQGTLVTVSSGGGGSGGGGSGGGASQSGLTQPRSVSGSPGQSVTISCTGTSSDVGGYNYVSWYQQHPGKAPKLMIYDVSKRPSGVPDRFSGSKSGNTASLTVSGLHAEDEADYYCSSYAGSNNFVFGTGTKVTVL	18300		43000	4390 nM	131000	
scFv A06 (scFv, also called 2427_01_C01) scFv: QVQLVQSGAEVKKPGSSVKVSCKASGGTFGSYTISWVRQAPGQGLEWMGRIIPILGIANYAQKFQGRVTITADKSTSTAYMELSSLRSEDTAVYYCARDYSSSWNSMDVWGQGTLVTVSSGGGGSGGGGSGGGASQSGLTQPRSVSGSPGQSVTISCTGTSSDVGAYNYVSWYQQHPGKAPKLMIYEVSKRPSGVPDRFSASKSGNTASLTVSGLQAEDEADYYCSSYAGSNNWVFGGGTKLTVL	35100		63100	716 nM	185000	

Results, then the binder that gave them:

Affinity Ranking ELISA (5 nM) signal [1]	Binding ELISA signal [2]	Binding ELISA signal [3]	Kd [4]	Affinity Ranking ELISA (50 nM) signal [5]	binding result [6]	Binder
36000		59200	219 nM	199000		scFv A03 (scFv, also called 2427_01_A12) scFv: QVQLVQSGAEVKKPGSSVKVSCKASGGTFSSYTISWVRQAPGQELEWMGRIIPILGIANYAQKFQGRVTITADKSTSTAYMELSSLRSEDTAVYYCARDYSSSWNSMDVWGQGTLVTVSSGGGGSGGGGSGGGASQSGLTQPPSASGSPGQSVTISCTGTSSDIGYYHYVSWYQQHPGKAPKLMIYEDSKRPSGISNRFSGSKSGTTASLTVSGLQAEDEAHYYCSSFTSRSTWVFGGGTQLTVL
81200	37200	55400	48 nM	243000	binds	scFv A10 (scFv, also called 2432_01_D08; D08) scFv: EVQLVQSGAEVKKPGSSVKVSCKASGGTFSSYAISWVRQAPGQGLEWMGGIIPIFGTANYAQKFQGRVTITADESTSTAYMELSSLRSEDTAVYYCARTRYIWGSYRAYGMDVWGQGTMVTVSSGGGGSGGGGSGGGASDIQMTQSPSSMSASVGDRVTITCRASQSISSHLNWYQQLPGNAPTLLIYYASNLQSGVPSRFSGSGSGTDFTLTISSLQPDDFATYYCQQSISLPYTFGQGTKVEIK
30400		51000	311 nM	173000		scFv A04 (scFv, also called 2427_01_B02) scFv: EVQLVQPGAEVKKPGSSVKVSCKASGGTLSSYAISWVRQAPGQGLEWMGRIIPILGITNYAQKFQGRVTITADKSTSTAYMELSSLRSEDTAVYFCARDQRPASMDVWGQGTLVTVSSGGGGSGGGGSGGGASQSELTQPASVSGSPGQSITISCTGTSSDVGGYIYVSWYQQHPGKVPKLMIHDVSHRPSGVSNRFSGSRSGNTASLTISGLQAEDEADYFCSSYTSSNNYYFGTGTKVTVL
25900		68600	293 nM	139000		scFv B07 (scFv, also called 2436_02_F10) scFv: EVQLVQSGAEVKRPGSSVKVSCKASGYTFTSYYMHWVRQAPGQGLEWMGIINPSGGSTSYAQKFQGRVTMTRDTSTSTVYMELSSLRSEDTAVYYCAAGTYSSGWTIDYWGQGTTVTVSSGGGGSGGGGSGGGASDIVMTQSPLSLPVTLGQPASISCRSSQSLVYTDGNTYLNWFQQRPGQSPRRLIYKVSNRDSGVPDRFSGSGSGTDFTLKISRVEAEDVGIYYCMHSKQWPPTFGGGTKVEIK
